T1: rat CDH6, on cells (rat, UniProt P55280 54-789)
T1 construct: also called rCDH6; NP_037059
T1 sequence: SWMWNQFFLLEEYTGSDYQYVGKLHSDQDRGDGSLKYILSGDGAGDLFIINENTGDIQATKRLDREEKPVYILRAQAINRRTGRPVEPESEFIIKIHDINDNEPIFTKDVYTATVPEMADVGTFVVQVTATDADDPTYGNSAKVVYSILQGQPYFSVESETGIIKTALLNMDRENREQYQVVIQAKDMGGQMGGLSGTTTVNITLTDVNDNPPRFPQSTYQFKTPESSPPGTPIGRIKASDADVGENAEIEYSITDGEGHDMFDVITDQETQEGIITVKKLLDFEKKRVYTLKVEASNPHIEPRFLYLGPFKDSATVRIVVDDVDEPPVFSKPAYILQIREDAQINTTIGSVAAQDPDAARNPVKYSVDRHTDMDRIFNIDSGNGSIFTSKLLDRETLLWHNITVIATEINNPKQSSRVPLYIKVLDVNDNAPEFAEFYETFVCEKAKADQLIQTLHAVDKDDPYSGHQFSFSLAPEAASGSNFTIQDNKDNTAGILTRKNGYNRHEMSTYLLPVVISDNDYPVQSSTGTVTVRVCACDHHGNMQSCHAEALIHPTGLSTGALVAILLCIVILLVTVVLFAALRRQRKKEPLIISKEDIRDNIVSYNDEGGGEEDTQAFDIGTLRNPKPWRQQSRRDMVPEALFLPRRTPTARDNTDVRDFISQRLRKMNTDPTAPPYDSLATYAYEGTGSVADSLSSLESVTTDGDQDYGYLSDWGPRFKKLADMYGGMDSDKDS

T2: mouse CDH6, on cells (mouse, UniProt P97326 54-790)
T2 construct: also called mCDH6; NP_031692
T2 sequence: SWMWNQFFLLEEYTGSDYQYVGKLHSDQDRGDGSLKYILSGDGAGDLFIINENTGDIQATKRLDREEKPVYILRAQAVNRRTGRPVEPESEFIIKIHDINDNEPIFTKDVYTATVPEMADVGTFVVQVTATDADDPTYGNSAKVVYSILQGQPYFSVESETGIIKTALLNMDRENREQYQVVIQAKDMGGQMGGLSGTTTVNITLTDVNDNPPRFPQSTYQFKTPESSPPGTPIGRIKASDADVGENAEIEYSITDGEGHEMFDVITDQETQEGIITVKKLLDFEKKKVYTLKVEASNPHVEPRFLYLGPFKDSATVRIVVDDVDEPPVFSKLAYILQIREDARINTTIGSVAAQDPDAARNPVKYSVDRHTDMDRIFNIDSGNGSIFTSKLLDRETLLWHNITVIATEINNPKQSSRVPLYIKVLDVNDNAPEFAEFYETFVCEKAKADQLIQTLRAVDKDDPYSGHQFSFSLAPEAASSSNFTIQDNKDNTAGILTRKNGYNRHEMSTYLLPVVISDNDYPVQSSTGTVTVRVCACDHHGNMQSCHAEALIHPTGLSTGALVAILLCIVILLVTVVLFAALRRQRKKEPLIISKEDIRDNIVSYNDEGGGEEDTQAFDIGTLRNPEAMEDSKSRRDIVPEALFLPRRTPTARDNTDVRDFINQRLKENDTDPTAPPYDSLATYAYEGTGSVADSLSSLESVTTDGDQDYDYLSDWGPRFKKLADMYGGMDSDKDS

T3: Recombinant Human CDH6 Fc His chimera (R&D Systems, Inc.) (human, UniProt P55285 54-615)
T3 construct: Bought reagent; also called the antigen; human CDH6 antigen; Fc part of the bought chimera not given; His tag of the bought chimera
T3 sequence: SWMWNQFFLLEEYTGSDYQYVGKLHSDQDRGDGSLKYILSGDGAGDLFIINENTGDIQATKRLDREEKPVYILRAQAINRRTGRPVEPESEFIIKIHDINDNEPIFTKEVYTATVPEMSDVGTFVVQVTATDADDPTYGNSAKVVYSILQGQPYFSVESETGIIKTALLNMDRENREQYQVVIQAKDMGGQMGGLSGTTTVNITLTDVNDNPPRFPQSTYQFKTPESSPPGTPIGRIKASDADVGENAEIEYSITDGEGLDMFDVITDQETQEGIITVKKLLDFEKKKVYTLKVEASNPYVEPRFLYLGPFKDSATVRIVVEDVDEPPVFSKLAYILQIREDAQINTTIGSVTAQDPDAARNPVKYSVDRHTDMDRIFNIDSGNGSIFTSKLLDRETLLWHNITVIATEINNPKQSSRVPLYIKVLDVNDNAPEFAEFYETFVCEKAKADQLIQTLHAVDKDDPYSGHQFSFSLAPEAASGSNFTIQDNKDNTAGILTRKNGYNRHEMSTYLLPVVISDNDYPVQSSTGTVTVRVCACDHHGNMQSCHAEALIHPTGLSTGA

T4: EC3 deletion mutant of human CDH6, on cells (human, UniProt P55285 54-790)
T4 construct: in p3×FLAG-CMV-9; also called EC3-deleted hCDH6
T4 sequence: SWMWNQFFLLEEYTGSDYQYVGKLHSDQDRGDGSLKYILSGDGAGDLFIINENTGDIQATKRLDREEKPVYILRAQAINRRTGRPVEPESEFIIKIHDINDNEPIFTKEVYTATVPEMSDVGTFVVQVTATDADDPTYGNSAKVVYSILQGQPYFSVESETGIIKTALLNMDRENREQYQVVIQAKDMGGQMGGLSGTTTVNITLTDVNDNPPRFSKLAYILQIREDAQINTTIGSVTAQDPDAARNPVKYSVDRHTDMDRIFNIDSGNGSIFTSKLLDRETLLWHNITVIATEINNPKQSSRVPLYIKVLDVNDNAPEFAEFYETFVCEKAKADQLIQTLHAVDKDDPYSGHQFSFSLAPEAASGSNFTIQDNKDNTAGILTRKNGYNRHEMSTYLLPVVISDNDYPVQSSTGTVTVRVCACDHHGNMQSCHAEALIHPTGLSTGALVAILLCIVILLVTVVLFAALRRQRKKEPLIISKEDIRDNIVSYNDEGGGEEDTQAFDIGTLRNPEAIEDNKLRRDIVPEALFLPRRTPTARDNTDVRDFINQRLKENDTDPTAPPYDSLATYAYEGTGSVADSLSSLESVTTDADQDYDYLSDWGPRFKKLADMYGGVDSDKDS

T5: EC5 deletion mutant of human CDH6, on cells (human, UniProt P55285 54-790)
T5 construct: in p3×FLAG-CMV-9; also called EC5-deleted hCDH6
T5 sequence: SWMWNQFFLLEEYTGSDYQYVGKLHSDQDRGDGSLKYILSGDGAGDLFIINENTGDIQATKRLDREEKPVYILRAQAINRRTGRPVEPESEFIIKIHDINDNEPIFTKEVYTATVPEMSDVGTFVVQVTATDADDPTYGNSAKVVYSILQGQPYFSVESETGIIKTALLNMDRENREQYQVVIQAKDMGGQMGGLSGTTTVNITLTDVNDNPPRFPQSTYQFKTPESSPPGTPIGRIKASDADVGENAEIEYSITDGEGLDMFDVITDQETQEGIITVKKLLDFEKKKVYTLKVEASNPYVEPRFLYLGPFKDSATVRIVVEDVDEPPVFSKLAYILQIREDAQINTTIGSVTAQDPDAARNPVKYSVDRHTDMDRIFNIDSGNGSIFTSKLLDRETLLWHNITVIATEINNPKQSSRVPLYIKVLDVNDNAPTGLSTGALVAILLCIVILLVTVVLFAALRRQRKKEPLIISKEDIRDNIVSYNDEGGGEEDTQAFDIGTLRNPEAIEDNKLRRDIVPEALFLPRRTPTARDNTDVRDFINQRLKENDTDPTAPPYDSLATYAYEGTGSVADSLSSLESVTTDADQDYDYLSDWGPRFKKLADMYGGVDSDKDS

T6: human CDH6 (cadherin-6), full-length, on cells (human, UniProt P55285 54-790)
T6 construct: also called hCDH6; full-length hCDH6
T6 sequence: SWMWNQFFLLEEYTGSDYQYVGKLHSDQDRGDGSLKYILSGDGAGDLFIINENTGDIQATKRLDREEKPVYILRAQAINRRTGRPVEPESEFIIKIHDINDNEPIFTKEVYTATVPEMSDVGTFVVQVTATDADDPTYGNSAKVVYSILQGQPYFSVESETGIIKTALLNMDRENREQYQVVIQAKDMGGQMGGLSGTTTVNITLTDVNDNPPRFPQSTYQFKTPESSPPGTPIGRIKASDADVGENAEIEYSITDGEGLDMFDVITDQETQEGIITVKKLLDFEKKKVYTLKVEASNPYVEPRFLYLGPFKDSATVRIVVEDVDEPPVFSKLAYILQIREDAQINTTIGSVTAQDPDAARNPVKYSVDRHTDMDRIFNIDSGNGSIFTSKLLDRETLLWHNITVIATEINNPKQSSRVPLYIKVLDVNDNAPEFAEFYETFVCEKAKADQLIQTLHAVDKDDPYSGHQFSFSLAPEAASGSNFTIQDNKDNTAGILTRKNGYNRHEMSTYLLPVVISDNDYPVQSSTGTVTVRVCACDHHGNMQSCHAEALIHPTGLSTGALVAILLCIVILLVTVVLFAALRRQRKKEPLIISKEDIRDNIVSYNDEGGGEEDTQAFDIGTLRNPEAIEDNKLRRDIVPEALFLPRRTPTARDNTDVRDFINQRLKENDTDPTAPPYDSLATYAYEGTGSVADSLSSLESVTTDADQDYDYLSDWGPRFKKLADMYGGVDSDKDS


Legend:
rat CDH6, on cells = target: T1, rat CDH6, on cells; assay: flow cytometry; 293α cells transfected with rCDH6; PE anti-human IgG Fc(gamma) goat F(ab')
mouse CDH6, on cells = target: T2, mouse CDH6, on cells; assay: flow cytometry; 293α cells transfected with mCDH6; PE anti-human IgG Fc(gamma) goat F(ab')
[1] = target: T3, Recombinant Human CDH6 Fc His chimera …; assay: SPR (Biacore T200); antigen captured by immobilized anti-His antibody, antibody as analyte 0.391 to 100 nM; steady state affinity model
[2] = target: T4, EC3 deletion mutant of human CDH6, on …; assay: flow cytometry; 293α cells transfected with EC3-deleted hCDH6 (open line) against untransfected 293α cells (shaded); APC anti-human IgG goat F(ab')2; antibody concentration not given
[3] = target: T5, EC5 deletion mutant of human CDH6, on …; assay: flow cytometry; 293α cells transfected with EC5-deleted hCDH6 (open line) against untransfected 293α cells (shaded); APC anti-human IgG goat F(ab')2; antibody concentration not given
[4] = target: T6, human CDH6 (cadherin-6), full-length, …; assay: flow cytometry; 293α cells transfected with full-length hCDH6 (open line) against untransfected 293α cells (shaded); APC anti-human IgG goat F(ab')2; antibody concentration not given

Binder | binding result (rat CDH6, on cells) | binding result (mouse CDH6, on cells) | Kd [1] [nM] | binding result [2] | binding result [3] | binding result [4]
humanized anti-CDH6 antibody H04L02 (antibody, human IgG1, kappa, V domains shown, hH04 heavy chain and hL02 light chain, human IgG1 / kappa; also called H04L02 antibody) VH: QVQLVQSGAEVKKPGASVKVSCKASGYTFTRNFMHWIRQAPGQGLEWMGWIYPGDGETEYAQKFQGRVTLTADRSTSTAYMELSSLRSEDTAVYYCARGVYGGFAGGYFDFWGQGTLVTVSS VL: DIQMTQSPSSLSASVGDRVTITCKASQNIYKNLAWYQQKPGKAPKLLIYDANTLQTGVPSRFSGSGSGSDFTLTISSLQPEDFATYFCQQYYSGWAFGQGTKVEIKR | no binding (tested: about 4, unit not printed on the axis) | no binding (tested: about 4, unit not printed on the axis) | 1.1 | no binding |  | 
anti-CDH6 antibody NOV0712 (antibody, human IgG1, kappa, V domains shown, Made after WO 2016/024195; also called NOV0712 antibody) VH: QVQLLESGGGLVQPGGSLRLSCAASGFTFSSHGMHWVRQAPGKGLEWVSVISGSGSNTGYADSVKGRFTISRDNSKNTLYLQMNSLRAEDTAVYYCARQWGSYAFDSWGQGTLVTVSS VL: DIQMTQSPSSLSASVGDRVTITCRASQSISSYLNWYQQKPGKAPKLLIYAVSTLQSGVPSRFSGSGSGTDFTLTISSLQPEDFATYYCQQSGTFPPTTFGQGTKVEIKR |  |  |  |  | no binding | binds
